Experimental data: patent US20260158095A1, “PLANT EXTRACT AND USE THEREOF IN TOPICAL COMPOSITIONS” (TERM HELVET SA, priority 2021, published 2026)

Test system: human keratinocyte culture
Test: Filopodia formation in human keratinocyte culture (rhodamine-phalloidin staining, fluorescence microscopy)
Assay type: cell-based
Settings: human keratinocytes
Experimental: Table 2 indicates the intensity of filopodia formation (number and surface area) in vitro in four keratinocyte cultures under four operating conditions, after treatment with: • a solvent, • HB-EGF (heparin-binding epidermal growth factor), • Picrorhiza kurroa extract obtained without hydrolysis, and • Picrorhiza kurroa extract obtained following hydrolysis.
The test is performed using a human keratinocyte culture divided into four batches. Cells are treated for 1 h with the products to be tested, fixed in 4% formalin, and then stained with rhodamine-conjugated α-phalloidin (α-phalloidin has high affinity for actin filaments, and its conjugation to rhodamine makes actin filaments fluorescent [540 nm; 565 nm]). The cell morphology is then analyzed under a fluorescence microscope (FIG. 2). • A, solvent, negative (no stimulation); • B, HB-EGF (heparin-binding epidermal growth factor), reference epidermal trophic factor, 5 ng/ml; • C, Picrorhiza kurroa extract obtained without hydrolysis, 100 μg/ml; • D, Picrorhiza kurroa extract obtained following hydrolysis, 100 μg/ml.

B1: HB-EGF: heparin-binding epidermal growth factor, reference epidermal trophic factor, positive control (protein, UniProt Q99075 63-148, looked up)
Heparin-binding EGF-like …: DLQEADLDLLRVTLSSKPQALATPNKEEHGKRKKKGKGLGKKRDPCLRKYKDFCIHGECKYVKELRAPSCICHPGYHGERCHGLSL
For B1, the “Visual evaluation of the production of filopodia (scale from 0 to 3)” value (5 ng/ml, 1 h treatment) was 3 and the “Intensity of filopodia formation (effect in words)” value (HB-EGF 5 ng/ml, extracts 100 μg/ml, 1 h) was “intense effect”.
